Target: T1, nine-person peanut-specific IgE antibody pool
T1 construct: polyclonal human serum IgE; also called pooled serum; peanut-positive serum pool
Test: competitive ELISA inhibition, pooled serum IgE on coated crude peanut

B1: Ara h 1 (purified from peanut) (other)
chain: KSSPYQKKTENPCAQRCLQSCQQEPDDLKQKACESRCTKLEYDPRCVYDPRGHTGTTNQRSPPGERTRGRQPGDYDDDRRQPRREEGGRWGPAGPREREREEDWRQPREDWRRPSHQQPRKIRPEGREGEQEWGTPGSHVREETSRNNPFYFPSRRFSTRYGNQNGRIRVLQRFDQRSRQFQNLQNHRIVQIEAKPNTLVLPKHADADNILVIQQGQATVTVANGNNRKSFNLDEGHALRIPSGFISYILNRHDNQNLRVAKISMPVNTPGQFEDFFPASSRDQSSYLQGFSRNTLEAAFNAEFNEIRRVLLEENAGGEQEERGQRRWSTRSSENNEGVIVKVSKEHVEELTKHAKSVSKKGSEEEGDITNPINLREGEPDLSNNFGKLFEVKPDKKNPQLQDLDMMLTCVEIKEGALMLPHFNSKAMVIVVVNKGTGNLELVAVRKEQQQRGRREEEEDEDEEEEGSNREVRRYTARLKEGDVFIMPAAHPVAINASSELHLLGFGINAENNHRIFLAGDKDNVIDQIEKQAKDLAFPGSGEQVEKLIKNQKESHFVSARPQSQSQSPSSPEKESPEKEDQEEENQGGKGPLLSILKAFN
modifications: glycoprotein (PAS positive); fluorescein-labelled tracer in Example 6
notes: Native allergen from peanut extract; Forms trimers and hexamers
IC50: 5.5 ng/mL
